The record followed here is doi:10.1101/2021.10.20.465166.

What all share (assay): EMSA
Series [1] addresses C/EBPα p42 (full length) (UniProt P49715 1-358).
Series [2] concerns the target C/EBPα bZIP domain (UniProt P49715 282-345).
Series [3] concerns the target C/EBPα p30 (UniProt P49715-3 1-239).

C/EBPα p42 (full length), sequence (P49715 whole entry, the tested form may be a part): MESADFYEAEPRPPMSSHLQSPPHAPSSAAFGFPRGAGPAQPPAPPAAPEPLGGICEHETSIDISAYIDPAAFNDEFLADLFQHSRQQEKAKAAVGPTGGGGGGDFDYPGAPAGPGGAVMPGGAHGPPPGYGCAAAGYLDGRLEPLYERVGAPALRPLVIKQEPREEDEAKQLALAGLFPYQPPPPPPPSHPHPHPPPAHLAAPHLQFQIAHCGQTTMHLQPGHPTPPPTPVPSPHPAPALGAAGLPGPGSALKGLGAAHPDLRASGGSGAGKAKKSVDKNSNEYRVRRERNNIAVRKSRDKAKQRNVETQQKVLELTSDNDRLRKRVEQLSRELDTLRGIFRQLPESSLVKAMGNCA
C/EBPα p30, sequence (P49715 120-358): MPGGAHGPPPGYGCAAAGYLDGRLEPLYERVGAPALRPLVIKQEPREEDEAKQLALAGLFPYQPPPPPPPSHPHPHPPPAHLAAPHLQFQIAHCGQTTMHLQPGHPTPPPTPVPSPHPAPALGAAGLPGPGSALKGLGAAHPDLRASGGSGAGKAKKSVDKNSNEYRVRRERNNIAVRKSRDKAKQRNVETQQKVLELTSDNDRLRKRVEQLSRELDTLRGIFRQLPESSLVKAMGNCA
C/EBPα bZIP domain, sequence (P49715 282-345): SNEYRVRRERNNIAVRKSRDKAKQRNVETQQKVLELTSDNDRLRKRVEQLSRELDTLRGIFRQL

As for CCCCCACCCAGCCAGGCCAAC (ssRNA) [PU.1 intron 4 RNA (PU.1i4)], the binding result was “binds” in series [1], “no binding” in series [2] and “binds” in series [3].

On to GGGACCCGGUUCCCACUCACCCAGC (structured_RNA) [CTBP1 intron 2 negative RNA (CTBP1i2N)], for which the binding result in series [1] and in series [3] was “no binding” throughout.

Regarding UUCCCACUCACCCAGCACCC (ssRNA) [CTBP1 intron 2 RNA (CTBP1i2)], the binding result is “binds” in series [1], “no binding” in series [2] and “binds” in series [3].
